Measured values from patent publication US20150175707.

Assay: HP-SEC as in Example 20; Fc:Fc self-oligomerization

Substance	fraction oligomer (HP-SEC)	% multimeric (HP-SEC)
IgG1-2F8-RGY (EGFR antibody 2F8 with E345R/E430G/S440Y)	IgG1-2F8-RGY (74.5%)	
IgG1-7D8-RGY (CD20 antibody 7D8 with E345R/E430G/S440Y)	IgG1-7D8-RGY (67.2%)	
IgG2-005-RGY (IgG2-005-E345R/E430G/S440Y)		IgG2-005-RGY (46.1% multimeric)
IgG3-005-RGY		IgG3-005-RGY (37.8% multimeric)
IgG4-005-RGY		IgG4-005-RGY (84.4% multimeric)
